A short description of data set [1]: Stability of mini-G proteins in detergent by native DSF. The settings on record: 2 mg/ml, onset of scattering. Format: physicochemical. How it is done: (§1) For constructs see FIGS. 29 and 35-37. Expression, purification and stability measurements by differential scanning fluorimetry (DSF) of the mini-G proteins as well as the non-lipidated Gβ1γ2 dimer, were performed following the protocols described in Example 1. The stability of mini-G proteins was also determined in detergent using native DSF (NanoTemper Prometheus). Mini-G proteins (2 mg/ml) in 50 mM HEPES pH 7.5 (KOH), 20 mM MgCl2, 50 mM NaCl, 1 μM GDP were mixed with either no detergent (control), 0.1% LMNG or 0.1% DDM. Samples were incubated on ice (minimum 30 min) prior to heating on the Prometheus (20% excitation, 15° C.-85° C., rate of 2.0° C./min) and the onset of scattering determined.

Data set [2] in a line: Thermostability of GDP-bound mini G proteins by differential scanning fluorimetry (DSF). Format: physicochemical. The settings on record: for Stability measured by DSF: mini-G protein alone, GDP-bound; for Mini Gs basal Tm (GDP-bound state, DSF): 1 mM GDP, SYPRO-orange, no receptor. How it is done: SYPRO-orange (15 μl) was added from a 20× stock solution to give a final concentration of 2×. Samples were mixed and 2×50 μl aliquots (duplicates) were transferred to 0.2 ml PCR tubes (Qiagen). Thermostability measurements were performed using a Rotor-Gene Q (Qiagen). Samples were equilibrated for 90 s at 25° C. before ramping from 25 to 99° C. at 4 s/° C. The melting temperature (Tm), corresponding to the inflection point of the curve, was derived from analysis using the Rotor-Gene Q software. Tm values were calculated as the mean±SEM from three independent experiments.
as §1
Background: In DSF a fluorescence change marks the thermal transition of the protein.

Where a chain is given by its changes, count along the chain named. Names and notes keep the numbering of the source.

B1: Mini-Go112: mini-G protein of Go1, construct 12; SEQ ID NO:113 (protein)
chain: MGHHHHHHENLYFQGIEKNLKEDGISAAKDVKLLLLGADNSGKSTIVKQMKIIHGGSGGSGGTTGIVETHFTFKNLHFRLFDVGGQRSERKKWIHCFEDVTAIIFCVDLSDYNRMHESLMDFDSICNNKFFIDTSIILFLNKKDLFGEKIKKSPLTICFPEYTGPNTYEDAAAYIQAQFESKNRSPNKEIYCHMTCATDTNNAQVIFDAVTDIIIANNLRGCGLY
modifications: Mini-Go112
As for B1, in data set [1], the “Stability in detergent measured by native DSF, 0.1% DDM” value was determined as 32.6 ± 0.2 °C; the “Stability in detergent measured by native DSF, 0.1% LMNG” value is 40.7 ± 0.1 °C; the “Stability in detergent measured by native DSF, No detergent” value was determined as 43.6 ± 0.2 °C. Also, the “Stability measured by DSF” value in data set [2] (listed as Go1 12) turned out to be 63.8 ± 0.1 °C. Further, the “Stability measured by DSF” value in data set [2] (listed as mini-Go1) came out at 64 °C.

B2: Mini-Gi146: mini-Gi1 construct 46: N-terminus re-inserted, D249 back to Leu, G217D; SEQ ID NO:110 (protein)
chain: MGHHHHHHENLYFQGTLSAEDKAAVERSKMIDRNLREDGEKAAREVKLLLLGADNSGKSTIVKQMKIIHGGGGGGGGTTGIVETHFTFKDLHFKMFDVGGQRSERKKWIHCFEDVAAIIFCVDLSDYNRMHESMKLFDSICNNKWFTDTSIILFLNKKDLFEEKIKKSPLTICYQEYAGSNTYEEAAAYIQCQFEDLNKRKDTKEIYTHFTCATDTKNAQFIFDAVTDVIIKNNLKDCGLF
modifications: Mini-Gi146
For the molecule B2, the “less stable than mini-Gs by” value in data set [2] (DSF) is 17 °C. In addition, the “Stability measured by DSF” value in data set [2] amounted to 48 °C; in data set [2] (listed as Gs/i1 46) it was 47.8 ± 0.3 °C.

B3: Mini Gs164: A249D and switch III deletion (protein)
chain: MGHHHHHHANKKIEKQLQKDKQVYRATHRLLLLGAGESGKSTIVKQMRILHGGGGGETKFQVDKVNFHMFDVGGQRDERRKWIQCFNDVTAIIFVVDSSSYNRLQEALNLFKSIWNNRWLRTISVILFLNKQDLLAEKVLAGKSKIEDYFPEFARYTTPEDATPEPGEDPRVTRAKYFIRDEFLRISTASGDGRHYCYPHFTCAVDTENIRRVFNDCRDIIQRMHLRQYELL
modifications: MINI GS164
notes: A249D and switch III deletion
Turning to B3, in data set [2], the “Mini Gs basal Tm (GDP-bound state, DSF)” value is given as 66.5 ± 0.0 (n = 3) ° C.

B4: Mini Gs165: A249D-S252D-SIII (protein)
chain: B3 chain with S100D
modifications: MINI GS165
notes: A249D-S252D-SIII
In the case of B4, the “Mini Gs basal Tm (GDP-bound state, DSF)” value in data set [2] is recorded as 68.7 ± 0.0 (n = 3) ° C.

B5: Mini Gs183: G49D-E50N-A249D-S252D-SIII-L272D (protein)
chain: B3 chain with G36D, E37N, S100D, L110D
modifications: MINI GS183
notes: G49D-E50N-A249D-S252D-SIII-L272D
Consider B5, for which, in data set [2], the “Mini Gs basal Tm (GDP-bound state, DSF)” value is reported as 72.5 ± 0.0 (n = 3) ° C.

B6: Mini Gs169: A249D-S252D-SIII- (mutation list truncated in table) (protein)
chain: B3 chain with S100D, L110D
modifications: MINI GS169
Take B6: the “Mini Gs basal Tm (GDP-bound state, DSF)” value in data set [2] is 67.1 ± 0.0 (n = 3) ° C.

B7: Mini-Golf6: mini-G protein of Golf, 7 point mutations and 3 deletions from mini-Gs; SEQ ID NO:105 (protein)
chain: MGHHHHHHENLYFQGIEKQLQKERLAYKATHRLLLLGADNSGKSTIVKQMRILHGGSGGSGGTSGIFETRFQVDKVNFHMFDVGGQRDERRKWIQCFNDVTAIIYVADCSDYNRLRESLDDFESIWNNRWLRTISIILFLNKQDMLAEKVLAGKSKIEDYFPEYANYTVPEDATPDAGEDPKVTRAKFFIRDLFLRISTATGDGKHYCYPHFTCAVDTENARRIFNDCRDIIQRMHLKQYELL
modifications: Mini-Golf6
For B7, in data set [1], the “Stability in detergent measured by native DSF, 0.1% DDM” value turned out to be 37.4 ± 0.2 °C; the “Stability in detergent measured by native DSF, 0.1% LMNG” value is 41.9 ± 0.0 °C; the “Stability in detergent measured by native DSF, No detergent” value was found to be 44.3 ± 0.1 °C. Further, the “Stability measured by DSF” value in data set [2] (listed as Golf 6) stood at 64.8 ± 0.4 °C. Also, the “Stability measured by DSF” value in data set [2] (listed as mini-Golf) came out at 65 °C.

B8: Mini Gs199: mini Gs, Gly8 linker, switch III deleted, G49D E50N A249D S252D L272D (protein)
chain: MGHHHHHHANKKIEKQLQKDKQVYRATHRLLLLGADNSGKSTIVKQMRILHGGGGGGGGTSGIFETKFQVDKVNFHMFDVGGQRDERRKWIQCFNDVTAIIFVVDSSDYNRLQEALNDFKSIWNNRWLRTISVILFLNKQDLLAEKVLAGKSKIEDYFPEFARYTTPEDATPEPGEDPRVTRAKYFIRDEFLRISTASGDGRHYCYPHFTCAVDTENIRRVFNDCRDIIQRMHLRQYELL
modifications: MINI GS199
notes: mini Gs, Gly8 linker, switch III deleted, G49D E50N A249D S252D L272D
For the molecule B8, the “Mini Gs basal Tm (GDP-bound state, DSF)” value in data set [2] is 72.5 ± 0.0 (n = 3) ° C.

B9: Mini Gs254: mini Gs199 with M60A (protein)
chain: B8 chain with M47A
modifications: MINI GS254
notes: mini Gs199 with M60A
For the molecule B9, the “Mini Gs basal Tm (GDP-bound state, DSF)” value in data set [2] is recorded as 70.3 ± 0.0 (n = 3) ° C.

B10: Mini Gs340: mini Gs199 with I372A (protein)
chain: B8 chain with I218A
modifications: MINI GS340
notes: mini Gs199 with I372A
Regarding B10, the “Mini Gs basal Tm (GDP-bound state, DSF)” value in data set [2] was 66.6 ± 0.1 (n = 3) ° C.

B11: Mini GS303: mini Gs199 with V375I (protein)
chain: B8 chain with V221I
modifications: MINI GS303
notes: mini Gs199 with V375I
On to B11, for which the “Mini Gs basal Tm (GDP-bound state, DSF)” value in data set [2] is given as 70.3 ± 0.0 (n = 3) ° C.

B12: Mini Gs350: mini Gs199 with L63Y (protein)
chain: B8 chain with L50Y
modifications: MINI GS350
notes: mini Gs199 with L63Y
Consider B12, for which the “Mini Gs basal Tm (GDP-bound state, DSF)” value in data set [2] was 70.7 ± 0.0 (n = 3) ° C.

B13: Mini Gs345: mini Gs199 with I372A-V375I; detergent stabilised construct (protein)
chain: B8 chain with I218A, V221I
modifications: MINI GS345
notes: mini Gs199 with I372A-V375I; detergent stabilised construct
With B13, the “Mini Gs basal Tm (GDP-bound state, DSF)” value in data set [2] was 65.4 ± 0.1 (n = 3) ° C.

B14: Mini Gs352: mini Gs199 with L63Y-I372A (protein)
chain: B8 chain with L50Y, I218A
modifications: MINI GS352
notes: mini Gs199 with L63Y-I372A
Regarding B14, in data set [2], the “Mini Gs basal Tm (GDP-bound state, DSF)” value was 64.7 ± 0.1 (n = 3) ° C.

B15: Mini Gs162: mini Gs161 with A249D (protein)
chain: MGHHHHHHANKKIEKQLQKDKQVYRATHRLLLLGAGESGKSTIVKQMRILHGGGGGETKFQVDKVNFHMFDVGGQRDERRKWIQCFNDVTAIIFVVDSSSYNMVIREDNQTNRLQEALNLFKSIWNNRWLRTISVILFLNKQDLLAEKVLAGKSKIEDYFPEFARYTTPEDATPEPGEDPRVTRAKYFIRDEFLRISTASGDGRHYCYPHFTCAVDTENIRRVFNDCRDIIQRMHLRQYELL
modifications: MINI GS162
notes: mini Gs161 with A249D
As for B15, the “Mini Gs basal Tm (GDP-bound state, DSF)” value in data set [2] is 60.6 ± 0.1 (n = 3) ° C.

B16: Gαs: purified non-lipidated Gαs subunit (protein, UniProt P63092 2-394, looked up)
Guanine nucleotide-binding …: GCLGNSKTEDQRNEEKAQREANKKIEKQLQKDKQVYRATHRLLLLGAGESGKSTIVKQMRILHVNGFNGEGGEEDPQAARSNSDGEKATKVQDIKNNLKEAIETIVAAMSNLVPPVELANPENQFRVDYILSVMNVPDFDFPPEFYEHAKALWEDEGVRACYERSNEYQLIDCAQYFLDKIDVIKQADYVPSDQDLLRCRVLTSGIFETKFQVDKVNFHMFDVGGQRDERRKWIQCFNDVTAIIFVVASSSYNMVIREDNQTNRLQEALNLFKSIWNNRWLRTISVILFLNKQDLLAEKVLAGKSKIEDYFPEFARYTTPEDATPEPGEDPRVTRAKYFIRDEFLRISTASGDGRHYCYPHFTCAVDTENIRRVFNDCRDIIQRMHLRQYELL
modifications: non-lipidated
notes: purified non-lipidated Gαs subunit
Consider B16, for which the “Mini Gs basal Tm (GDP-bound state, DSF)” value in data set [2] was 50.1 ± 0.1 (n = 3) ° C.

B17: Mini Gs399: mini Gs393 with N-terminal residues 6-25 replaced and L272D reversed; binds Gβγ (protein)
chain: MGHHHHHHENLYFQGNSKTEDQRNEEKAQREANKKIEKQLQKDKQVYRATHRLLLLGADNSGKSTIVKQMRILHGGSGGSGGTSGIFETKFQVDKVNFHMFDVGGQRDERRKWIQCFNDVTAIIFVVDSSDYNRLQEALNLFKSIWNNRWLRTISVILFLNKQDLLAEKVLAGKSKIEDYFPEFARYTTPEDATPEPGEDPRVTRAKYFIRDEFLRISTASGDGRHYCYPHFTCAVDTENARRIFNDCRDIIQRMHLRQYELL
modifications: MINI GS399
In the case of B17, in data set [2], the “Stability measured by DSF” value is 71.6 ± 0.0 °C.

B18: Mini-Gs/i148: mini-Gs/i1 chimera construct 48; SEQ ID NO:112 (protein)
chain: B17 chain with C248V, R249T, Q253I, R254K, H256N, Q259D, Y260C, E261G, L263F
modifications: Mini-Gs/i148
Regarding B18, in data set [2], the “Stability measured by DSF” value amounted to 72.1 ± 0.1 °C.

B19: mini-Gs/o_16: mini-Gs/o1 chimera construct 16; SEQ ID NO:139 (protein)
chain: B17 chain with C248V, R249T, Q253I, R254A, H256N, Q259G, Y260C, E261G, L263Y
modifications: miniGs/o_16
On to B19, for which the “Stability measured by DSF” value in data set [2] was found to be 69.0 ± 0.1 °C.

Values taken from patent US11339383B2, “G proteins” (HEPTARES THERAPEUTICS LIMITED, priority 2016, dated 2022).
